# Key:
# Assay type in all cases: cell-based, human
# [1] = tested on: β-catenin signaling; assay: Co-culture 6xTCF-luciferase assay in STF-293 cells with lung (LU2, LU25) and ovarian (OV38) tumor cells and supernatants; conditions: tumor cells LU2, LU25, OV38; 10 μg/ml
# Description: Similar experiments were undertaken using co-culture assays using lung tumor cell-conditioned medium and ovarian tumor cell-conditioned medium. As described above, freshly processed tumor cells depleted of stroma cells were cultured overnight. Culture medium and cells were transferred to STF-293 cells with or without Wnt3a L-cell-conditioned medium. LGR5-Fc fusion protein, a FZD8-Fc fusion protein, or a control Fc fusion protein was added (10 μg/ml). The cells were incubated for 20 hours and luciferase activity was measured as described above.
# [2] = tested on: β-catenin signaling; assay: TOPflash luciferase assay in HEK-293 cells: inhibition of RSPO activity by soluble LGR5; conditions: LGR5-Fc 20 to 0.02 μg/ml; controls 20 μg/ml
# Description: Conditioned medium from human lung tumor #1 cells was prepared as described in Example 3 and soluble LGR5-Fc and RSPO2-Fc were produced as described in Example 2.
# HEK-293 cells were transfected with a 6×TCF-luciferase reporter vector (TOPflash, Millipore, Billerica, Mass.). After 24-48 hrs, the transfected cells were incubated with medium containing 25% lung tumor cell-conditioned medium plus 25% Wnt3a-L cell-conditioned medium or medium containing RSPO2 (1 Ong/ml) plus 25% Wnt3a-L cell-conditioned medium. Soluble LGR5 was added to the cells in 4-fold serially dilutions at 20 μg/ml to 0.02 μg/ml. Soluble Jag-Fc protein was used as a negative control at 20 μg/ml and FZD8-Fc protein was used as a positive control at 20 μg/ml. The cells were incubated for 16 hours and luciferase activity was measured using Steady-Glo® Luciferase Assay System according to the manufacturer's instructions (Promega, Madison, Wis.).
# [3] = tested on: β-catenin signaling; assay: Luciferase assay in STF-293 cells with LU2 cells, lung tumor cell-conditioned medium and Wnt3a-L cell-conditioned medium; conditions: increasing concentrations, 50 to 0.0006 μg/ml
# Description: Conditioned medium from human lung tumor LU2 cells was prepared as described in Example 3 and soluble LGR5-Fc was produced as described in Example 2.
# STF-293 cells were incubated with LU2 cells plus 25% lung tumor cell-conditioned medium plus 25% Wnt3a-L cell-conditioned medium. Antibody 130M23 and soluble LGR5-Fc were added to the cells in 5-fold serially dilutions from 50 μg/ml to 0.0006 μg/ml. An irrelevant monoclonal antibody, similarly diluted, and a control Fc fusion protein (50 ug/ml) were used as negative controls. The cells were incubated for 20 hours and luciferase activity was measured using Steady-Glo® Luciferase Assay System according to the manufacturer's instructions (Promega, Madison, Wis.).
# [4] = tested on: β-catenin signaling; assay: 6xTCF-luciferase reporter assay in STF-293 cells with lung tumor cell-conditioned medium (LT); conditions: Fc proteins 10 μg/ml, antibodies 40 μg/ml
# Description: To prepare cell suspensions, fresh human lung adenocarcinoma xenograft tumors (lung tumor #1 in Table 2) propagated in NOD/SCID mice were minced and digested in medium 199 (Invitrogen, Carlsbad, Calif.) containing 300 U/ml collagenase type 3 (Worthington, Lakewood, N.J.) and 200 U/ml DNase I (Worthington, Lakewood, N.J.) for 1 to 2 hours at 37° C. The lung tumor cells were filtered through a 40 μm nylon strainer (BD Falcon, Franklin Lakes, N.J.), and spun down at 82×g for 5 minutes. Red blood cells were lysed in ACK buffer (0.8% ammonium chloride, 0.1 mM EDTA, 10 mM sodium bicarbonate, […]), washed, and centrifuged at 150×g for 5 minutes in medium consisting of HBSS (Mediatech, Manassas, Va.), 25 mM HEPES buffer (Mediatech, Manassas, Va.) and 2% heat-inactivated fetal bovine serum (HI-FBS; Invitrogen, Carlsbad, Calif.). Dead cells and debris were removed by centrifugation on a cushion of HI-FBS at 82×g for 8 minutes. […]
# STF-293 cells are stably transfected with a 6×TCF-luciferase reporter vector. […] The cells were incubated for 16 hours and luciferase activity was measured using Steady-Glo® Luciferase Assay System according to the manufacturer's instructions (Promega, Madison, Wis.). […]
molecule,measurement,setting,value
"LGR5-Fc: soluble fusion protein: amino acids 22-564 of human LGR5 ligated to human Fc (protein, left off: a dimerising Fc or GST, soluble fusion protein: amino acids 22-564 of human LGR5 ligated to human Fc) GSSPRSGVLLRGCPTHCHCEPDGRMLLRVDCSDLGLSELPSNLSVFTSYLDLSMNNISQLLPNPLPSLRFLEELRLAGNALTYIPKGAFTGLYSLKVLMLQNNQLRHVPTEALQNLRSLQSLRLDANHISYVPPSCFSGLHSLRHLWLDDNALTEIPVQAFRSLSALQAMTLALNKIHHIPDYAFGNLSSLVVLHLHNNRIHSLGKKCFDGLHSLETLDLNYNNLDEFPTAIRTLSNLKELGFHSNNIRSIPEKAFVGNPSLITIHFYDNPIQFVGRSAFQHLPELRTLTLNGASQITEFPDLTGTANLESLTLTGAQISSLPQTVCNQLPNLQVLDLSYNLLEDLPSFSVCQKLQKIDLRHNEIYEIKVDTFQQLLSLRSLNLAWNKIAIIHPNAFSTLPSLIKLDLSSNLLSSFPITGLHGLTHLKLTGNHALQSLISSENFPELKVIEMPYAYQCCAFGVCENAYKISNQWNKGDNSSMDDLHKKDAGMFQAQDERDLEDFLLDFEEDLKALHSVQCSPSPGPFKPCEHLLDGWLIRIGV",reduction of tumor-derived β-catenin activity,[1],strongly reduced
same,induction of luciferase activity by RSPO2-Fc plus Wnt3a-conditioned medium,[2],reduced
same,induction of luciferase activity by lung tumor cell-conditioned medium and Wnt3a-conditioned medium,[2],reduced
same,induction of luciferase activity by lung tumor cell-conditioned medium and Wnt3a-conditioned medium,[3],reduced
same,inhibition of the LT activity potentiating Wnt3a-induced β-catenin activity,[4]; LT plus Wnt3a L-cell-conditioned medium,inhibited
same,inhibition of LT medium-induced β-catenin signaling,[4]; absence of Wnt3a,reducing the response to almost control levels

# — US9644034B2, “Anti-RSPO2 antibodies and uses thereof” (OncoMed Pharmaceuticals, Inc., priority 2011, dated 2017)
